Measurements reported in patent US20240343810A1 (published 2024).

Experiments:
[1] = target: T1, mouse ICOS expressed on CHO cells (mouse, UniProt Q9WVS0 21-200); test: Flow cytometry on CHO-S mouse ICOS cells, anti-human IgG AF647, N=1
T1 construct: also called CHO-S cells transfected with mouse ICOS; mICOS
T1 sequence (looked up): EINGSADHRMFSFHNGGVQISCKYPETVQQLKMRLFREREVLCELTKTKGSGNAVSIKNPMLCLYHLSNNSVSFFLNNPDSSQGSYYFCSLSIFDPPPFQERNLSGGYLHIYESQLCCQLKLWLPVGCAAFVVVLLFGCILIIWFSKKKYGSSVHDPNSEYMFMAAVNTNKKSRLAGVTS
Description: (§1) CHO—S cells transfected with either human ICOS or mouse ICOS were resuspended in FACS buffer (PBS+1% w/v BSA+0.1% w/v sodium azide) and transferred to a 96-well V-bottom plate (Greiner) at a density of 1×10⁵ cells per well. mAb and mAb² were titrated in FACS buffer, 1 in 3 dilution across 11 points from a starting working concentration of 400 nM. Plates were centrifuged at 300×g for 3 minutes, supernatant discarded and 50 μL mAb or mAb² solution were added to cells and incubated at 4° C. for 1 hour. Cells were washed with 150 μL of PBS and centrifuged at 300×g for 3 minutes, supernatant was discarded and cell pellet resuspended in 150 μL PBS added. This wash step was repeated twice. Bound mAb or mAb² was detected by addition of 50 μL of anti-human 647 (Jackson ImmunoResearch) diluted to 3 ug/ml in FACS buffer. Cells were incubated for 1 hour at 4° C. in the dark. Cells were washed with 150 μL of PBS and centrifuged at 300 g for 3 minutes, supernatant was discarded and cell pellet resuspended in 150 μL PBS added. This wash step was repeated twice. Cells were fixed with 25 μL 4% v/v paraformaldehyde, incubated for 20 minutes at 4° C., cells were pelleted by centrifugation at 300×g and the supernatant discarded. […] AlexaFluor 647 signal intensity (geometric mean) was measured by flow cytometry using a Beckman Coulter CytoFLEX instrument.

[2] = target: T1, mouse ICOS expressed on CHO cells; test: Flow cytometry on CHO-S mouse ICOS cells, anti-human IgG AF647, mean
Description: as §1

[3] = target: T2, mouse ICOS-mFc (Chimerigen) (mouse, UniProt Q9WVS0 21-141, limits assumed); test: DELFIA ELISA on coated mouse ICOS-mFc, N=3
T2 construct: Bought; also called recombinant mouse ICOS protein; mICOS; not shown: mouse Fc of the bought fusion
T2 sequence: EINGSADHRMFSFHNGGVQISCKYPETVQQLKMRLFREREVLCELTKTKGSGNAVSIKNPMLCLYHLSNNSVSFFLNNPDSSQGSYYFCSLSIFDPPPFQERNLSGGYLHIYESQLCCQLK
Description: (§2) Recombinant ICOS proteins, human ICOS-mFc or mouse ICOS-mFc (Chimerigen) were diluted in 1×PBS and added to Black Hi-bind plates (Griener) at 1 μg/ml, 50 μl/well. Recombinant PD-L1 proteins, human PD-L1-Flag-His or mouse-His were diluted in 1×PBS and added to Black Hi-bind plates (Griener) at 4 μg/ml, 50 μl/well. The plates were left overnight at 4° C. The next day plates were washed 3× with 300 μl/well of 1×PBS+0.1% Tween and blocked with 200 ul/well of 1×PBS+1% BSA blocking buffer for 1 hr at RT on a plate shaker. Plates were washed 3× with 300 μl/well of 1×PBS+0.1% Tween.
(§3) However, human-PD-L1 mAb² antibodies were diluted in 1×PBS+0.1% BSA buffer and diluted 1 in 2 from a starting working concentration of 0.066 μM over an 11 point titration. Titrated antibodies were added to the plates, 50 μl/well and left to incubate for 1 hr at R.T on a plate shaker. Plates were washed 3× with 300 μl/well of 1×PBS+0.1% Tween.
(§4) DELFIA® Eu-labelled Anti-human IgG (Perkin-Elmer) was diluted 1:500 in DELFIA Assay buffer (Perkin-Elmer) and added to the assay plate (50 μl/well), left to incubate for 1 hr at RT on a plate shaker. […] After incubation, assay was read on Envision plate reader (Perkin Elmer), Time-resolved fluorescence (TRF) was measured at 615 nm.

[4] = target: T3, human ICOS-mFc (Chimerigen) (human, UniProt Q9Y6W8 21-140); test: HTRF, human ICOS-mFc, competitor human B7-H2-Alexa 647, average
T3 construct: Bought; also called recombinant human ICOS protein; hICOS; not shown: mouse Fc of the bought fusion
T3 sequence: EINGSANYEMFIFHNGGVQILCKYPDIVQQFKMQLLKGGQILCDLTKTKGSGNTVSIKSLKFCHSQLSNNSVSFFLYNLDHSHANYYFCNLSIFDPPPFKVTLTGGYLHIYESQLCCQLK
Description: (§5) 5 μl of human ICOS-mFc (Chimerigen) at 20 nM (5 nM final) or 5 ul of mouse ICOS-mFc (Chimerigen) at 4 nM (1 nM final) were added to relevant assay wells. Plate was incubated for 1 hour (hr) at room temperature (RT).
(§6) After incubation, assay was read on Envision plate reader (Perkin Elmer) using a standard HTRF protocol. 620 nm and 665 nm channel values were exported to Microsoft Excel and % Delta-F and % Neutralisation calculations performed. Titration curves and IC50 values [M] were plotted using Graphpad (Prism). IC50 values were calculated by first transforming the data using equation X=Log(X). The transformed data was then fitted using nonlinear regression, using fitting algorithm, log (inhibitor) vs. response—variable slope (four parameters).

[5] = target: T2, mouse ICOS-mFc (Chimerigen); test: HTRF, mouse ICOS-mFc, competitor mouse B7-H2-Alexa 647, n1
Description: as §5, §6

[6] = target: T3, human ICOS-mFc (Chimerigen); test: DELFIA ELISA on coated human ICOS-mFc, mean
Description: as §2, §3, §4

B1: STIM003 (antibody, human IgG1, kappa)
heavy: not shown
light: EIVLTQSPGTLSLSPGERATLSCRASQSVSRSYLAWYQQKRGQAPRLLIYGASSRATGIPDRFSGDGSGTDFTLSISRLEPEDFAVYYCHQYDMSPFTFGPGTKVDIKRTVAAPSVFIFPPSDEQLKSGTASVVCLLNNFYPREAKVQWKVDNALQSGNSQESVTEQDSKDSTYSLSSTLTLSKADYEKHKVYACEVTHQGLSSPVTKSFNRGEC
notes: Anti-ICOS monospecific antibody, tested as human IgG1; also called STIM003 monoclonal IgG1 antibody
[1]
  EC50: 6.8 nM
[2]
  EC50: 5.42 nM
[3]
  EC50: 0.338 nM
[4]
  IC50: 0.53 nM
[5]
  IC50: 0.87 nM
[6]
  EC50: 0.751 nM

B2: STIM001 (antibody, human IgG1, kappa)
heavy: not shown
light: DIVMTQSPLSLPVTPGEPASISCRSSQSLLHSNEYNYLDWYLQKPGQSPQLLIFLGSNRASGVPDRFSGSGSGTDFTLKITRVEAEDVGIYYCMQSLQTPLTFGGGTKVEIKRTVAAPSVFIFPPSDEQLKSGTASVVCLLNNFYPREAKVQWKVDNALQSGNSQESVTEQDSKDSTYSLSSTLTLSKADYEKHKVYACEVTHQGLSSPVTKSFNRGEC
notes: Anti-ICOS monospecific antibody, tested as human IgG1; also called STIM001 monoclonal IgG1 antibody
[1]
  EC50: 25.7 nM
[2]
  EC50: 16.9 nM
[3]
  EC50: 1.73 nM
[4]
  IC50: 1.47 nM
[5]
  IC50: 7.98 nM
[6]
  EC50: 28.9 nM
